According to the supplement of paper PMC9112550, “Optimization of the antimicrobial peptide Bac7 by deep mutational scanning” (BMC Biology, 2022):

The sequences below were run on Escherichia coli TOP10 (assay: shrunken log2 fold change of peptide-encoding DNA abundance (4.5 h post-induction vs induction); higher = less antimicrobial activity (less host growth inhibition)). Conditions: time post-induction: 4.5 h; library: site-saturation at positions 5, 18, 19, 20.
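Note: peptides expressed intracellularly from a pBAD plasmid library in pooled LB shake-flask culture, induced with 0.3% L-arabinose, DNA abundance read by NGS, three biological replicates, DESeq2 with apeglm shrinkage.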

Sequence | shrunken log2 fold change
RRIRLRPPRLPRPRPRPWATPRP | -0.0496
RRIRQRPPRLPRPRPRPKTRPRP | 0.247
RRIRHRPPRLPRPRPRPPYMPRP | -0.539
RRIRFRPPRLPRPRPRPSRYPRP | -0.0764
RRIRTRPPRLPRPRPRPRTHPRP | -0.0753
RRIRSRPPRLPRPRPRPIQIPRP | -0.0243
RRIRRRPPRLPRPRPRPPIYPRP | 0.786
RRIRFRPPRLPRPRPRPDLRPRP | -0.108
RRIRDRPPRLPRPRPRPNHWPRP | 0.0735
RRIRVRPPRLPRPRPRPSRIPRP | 0.0876
RRIRQRPPRLPRPRPRPNFGPRP | -0.0871
RRIRRRPPRLPRPRPRPKKQPRP | -0.0969
RRIRFRPPRLPRPRPRPHFFPRP | -0.053
RRIRERPPRLPRPRPRPKSMPRP | -0.307
RRIRSRPPRLPRPRPRPSLYPRP | -0.432
RRIRWRPPRLPRPRPRPQVPPRP | -0.211
RRIRERPPRLPRPRPRPDTQPRP | -0.116
RRIRNRPPRLPRPRPRPNEQPRP | -0.0324
RRIRERPPRLPRPRPRPEGGPRP | 0.361
RRIRLRPPRLPRPRPRPVAFPRP | 0.0295
RRIRSRPPRLPRPRPRPGACPRP | 0.0577
RRIRTRPPRLPRPRPRPRYTPRP | 0.0216
RRIRARPPRLPRPRPRPCRMPRP | -0.353
RRIRLRPPRLPRPRPRPSTYPRP | -0.205
RRIRLRPPRLPRPRPRPARKPRP | 0.0589

Sequence | shrunken log2 fold change
RRIRARPPRLPRPRPRPECSPRP | 1
RRIRQRPPRLPRPRPRPYVFPRP | -0.648
RRIRFRPPRLPRPRPRPRLWPRP | 0.497
RRIRRRPPRLPRPRPRPFKRPRP | -2.89e-05
RRIRIRPPRLPRPRPRPYVPPRP | -0.212
RRIRNRPPRLPRPRPRPRATPRP | 0.659
RRIRCRPPRLPRPRPRPTQRPRP | 0.514
RRIRERPPRLPRPRPRPYWIPRP | -0.376
RRIRVRPPRLPRPRPRPRIEPRP | 0.314
RRIRLRPPRLPRPRPRPVYNPRP | 0.41
RRIRDRPPRLPRPRPRPNDKPRP | -0.555
RRIRYRPPRLPRPRPRPHKAPRP | -0.0167
RRIRLRPPRLPRPRPRPWPSPRP | 0.341
RRIRQRPPRLPRPRPRPNNFPRP | -0.17
RRIRRRPPRLPRPRPRPHWLPRP | 0.28
RRIRSRPPRLPRPRPRPTTGPRP | 0.0655
RRIRDRPPRLPRPRPRPNHDPRP | -0.312
RRIRMRPPRLPRPRPRPMDYPRP | -0.00149
RRIRPRPPRLPRPRPRPRIRPRP | 0.0752
RRIRTRPPRLPRPRPRPPFFPRP | 0.253
RRIRPRPPRLPRPRPRPSWGPRP | -0.0123
RRIRLRPPRLPRPRPRPISQPRP | -0.135
RRIRMRPPRLPRPRPRPQHGPRP | 0.0121
RRIRCRPPRLPRPRPRPCGYPRP | -0.144
RRIRKRPPRLPRPRPRPNPFPRP | 1.91

Sequence | shrunken log2 fold change
RRIRARPPRLPRPRPRPSYDPRP | -0.52
RRIRHRPPRLPRPRPRPDLDPRP | -0.0331
RRIRMRPPRLPRPRPRPEVHPRP | -0.0544
RRIRRRPPRLPRPRPRPYKQPRP | -0.286
RRIRWRPPRLPRPRPRPYQEPRP | -0.0609
RRIRQRPPRLPRPRPRPWMMPRP | 0.0873
RRIRGRPPRLPRPRPRPQTQPRP | 2.07
RRIRKRPPRLPRPRPRPVGSPRP | 0.178
RRIRLRPPRLPRPRPRPGGNPRP | -0.0421
RRIRGRPPRLPRPRPRPWRVPRP | 0.499
RRIRQRPPRLPRPRPRPAASPRP | 0.129
RRIRRRPPRLPRPRPRPCKGPRP | 0.0306
RRIRKRPPRLPRPRPRPYELPRP | -0.0181
RRIRIRPPRLPRPRPRPWSHPRP | -0.416
RRIRERPPRLPRPRPRPHHPPRP | -0.197
RRIRTRPPRLPRPRPRPNRIPRP | -0.294
RRIRLRPPRLPRPRPRPWNNPRP | -0.225
RRIRSRPPRLPRPRPRPGIFPRP | 0.201
RRIRLRPPRLPRPRPRPLAFPRP | -0.092
RRIRARPPRLPRPRPRPETIPRP | 0.541
RRIRMRPPRLPRPRPRPGYAPRP | 0.341
RRIRTRPPRLPRPRPRPGKLPRP | -0.394
RRIRCRPPRLPRPRPRPNSVPRP | -0.143
RRIRDRPPRLPRPRPRPSFQPRP | -0.0455
RRIRERPPRLPRPRPRPDDDPRP | 0.00371

Sequence | shrunken log2 fold change
RRIRRRPPRLPRPRPRPNIFPRP | -0.0516
RRIRSRPPRLPRPRPRPGSMPRP | -0.201
RRIRFRPPRLPRPRPRPLQVPRP | -0.135
RRIRHRPPRLPRPRPRPGITPRP | -0.453
RRIRDRPPRLPRPRPRPKNHPRP | -0.195
RRIRQRPPRLPRPRPRPCQLPRP | -0.0105
RRIRVRPPRLPRPRPRPKAKPRP | 0.0989
RRIRSRPPRLPRPRPRPPDCPRP | -0.046
RRIRIRPPRLPRPRPRPADRPRP | -0.123
RRIRRRPPRLPRPRPRPWYHPRP | -0.0689
RRIRHRPPRLPRPRPRPISPPRP | -0.256
RRIRIRPPRLPRPRPRPDYFPRP | 0.197
RRIRTRPPRLPRPRPRPGQQPRP | -0.0603
RRIRIRPPRLPRPRPRPCKQPRP | -0.0506
RRIRTRPPRLPRPRPRPMATPRP | 0.0309
RRIRVRPPRLPRPRPRPHKAPRP | -0.0103
RRIRQRPPRLPRPRPRPTQAPRP | 0.186
RRIRRRPPRLPRPRPRPMGWPRP | 0.637
RRIRARPPRLPRPRPRPPGMPRP | 0.471
RRIRFRPPRLPRPRPRPLNFPRP | -0.452
RRIRIRPPRLPRPRPRPDYHPRP | -1.9
RRIRFRPPRLPRPRPRPVMAPRP | -0.271
RRIRCRPPRLPRPRPRPPLLPRP | -0.0189
RRIRPRPPRLPRPRPRPPPKPRP | 0.902
RRIRPRPPRLPRPRPRPVTLPRP | 0.527

Sequence | shrunken log2 fold change
RRIRHRPPRLPRPRPRPLRPPRP | 0.639
RRIRMRPPRLPRPRPRPSMEPRP | 0.484
RRIRGRPPRLPRPRPRPAEGPRP | 0.335
RRIRVRPPRLPRPRPRPGQPPRP | 0.0218
RRIRIRPPRLPRPRPRPVVRPRP | 0.11
RRIRLRPPRLPRPRPRPAYWPRP | 0.154
RRIRSRPPRLPRPRPRPHSPPRP | 0.146
RRIRDRPPRLPRPRPRPYSNPRP | -0.045
RRIRDRPPRLPRPRPRPDSIPRP | 0.0726
RRIRWRPPRLPRPRPRPHHNPRP | -0.478
RRIRVRPPRLPRPRPRPYEHPRP | -0.118
RRIRERPPRLPRPRPRPDAEPRP | 0.36
RRIRHRPPRLPRPRPRPQFLPRP | -0.653
RRIRCRPPRLPRPRPRPGHHPRP | -0.439
RRIRERPPRLPRPRPRPLDQPRP | 0.09
RRIRQRPPRLPRPRPRPFAIPRP | 0.00479
RRIRMRPPRLPRPRPRPLNEPRP | 0.216
RRIRTRPPRLPRPRPRPCHIPRP | -0.292
RRIRSRPPRLPRPRPRPQNFPRP | 0.00814
RRIRKRPPRLPRPRPRPAMSPRP | -0.146
RRIRVRPPRLPRPRPRPTPNPRP | 0.306
RRIRIRPPRLPRPRPRPNMEPRP | -0.509
RRIRSRPPRLPRPRPRPMVYPRP | -0.111
RRIRDRPPRLPRPRPRPGRFPRP | 0.315
RRIRSRPPRLPRPRPRPDWSPRP | 0.276

Sequence | shrunken log2 fold change
RRIRDRPPRLPRPRPRPLFKPRP | -0.221
RRIRLRPPRLPRPRPRPLVPPRP | -0.258
RRIRARPPRLPRPRPRPWQWPRP | -0.00151
RRIRYRPPRLPRPRPRPCSNPRP | -0.00822
RRIRLRPPRLPRPRPRPNKRPRP | -0.121
RRIRHRPPRLPRPRPRPQMCPRP | -0.0203
RRIRPRPPRLPRPRPRPRAMPRP | 0.292
RRIRGRPPRLPRPRPRPMAYPRP | 0.0863
RRIRCRPPRLPRPRPRPARFPRP | 0.558
RRIRQRPPRLPRPRPRPQTTPRP | -0.0245
RRIRWRPPRLPRPRPRPYDQPRP | -0.395
RRIRQRPPRLPRPRPRPEAHPRP | 0.0944
RRIRERPPRLPRPRPRPSRHPRP | -0.439
RRIRPRPPRLPRPRPRPKRNPRP | 0.142
RRIRGRPPRLPRPRPRPVITPRP | -0.09
RRIRIRPPRLPRPRPRPCLLPRP | -0.495
RRIRARPPRLPRPRPRPKIQPRP | 0.26
RRIRIRPPRLPRPRPRPYALPRP | -0.0961
RRIRMRPPRLPRPRPRPSGEPRP | 0.824
RRIRCRPPRLPRPRPRPDGFPRP | -0.333
RRIRKRPPRLPRPRPRPNWPPRP | 0.19
RRIRARPPRLPRPRPRPNPWPRP | 0.222
RRIRLRPPRLPRPRPRPTPQPRP | 0.594
RRIRDRPPRLPRPRPRPSHEPRP | -0.0403
RRIRYRPPRLPRPRPRPFEPPRP | -0.343
